The values that follow come from article PMC10965980.

For the assay, the target named is mGluR1 (UniProt P97772). Description: anti-Homer1 IP, mGluR1 western blot. Conditions: reference: wild-type Homer1; sites S117. (In western blotting, separated proteins are transferred to a membrane and probed.)

Consider “Homer1 (from UniProt Q9Z2Y3) Homer1 S117A”, for which the “binding against the reference” value is listed as “stronger”.
